Data published in publication PMC8885691, “Leveraging the multivalent p53 peptide-MdmX interaction to guide the improvement of small molecule inhibitors” (Nature Communications, 2022).

Target: p53-binding domain of human MdmX (N-MdmX, amino acids 22-110) (human) (UniProt O15151)
Assay: ITC; ITC-200 at 25 °C; 19 injections of 2.0 µL of ~0.2 mM ligand into ~10–20 µM protein in the cell; one-set-of-binding-sites model

Sequence of p53-binding domain of human MdmX (N-MdmX, amino acids 22-110) (human) (O15151 22-110): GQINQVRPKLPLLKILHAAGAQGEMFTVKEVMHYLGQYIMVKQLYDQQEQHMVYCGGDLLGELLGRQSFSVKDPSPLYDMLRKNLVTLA

- Kd: 360 nM
Substance: p53 transactivation domain peptide (p53p)
